Key:
[1] = tested on: Wnt3A-mediated induction of luciferase in the 293.TCF cells; assay: Wnt3A canonical signaling assay, bioactivity of Notum constructs; type: cell-based, human
Description: To generate a stable population of cells that contain a reporter for the activation of canonical Wnt signaling, HEK 293T cells were transduced with a lentiviral vector, pGreenFirel-TCF (System Biosciences) which encodes a bifunctional GFP and luciferase reporter cassette under the control of a minimal CMV reporter linked to four tandem repeats of the transcriptional response elements for TCF. Transduced cells populations, termed 293.TCF cells, were subsequently used in a Wnt3A canonical signaling assay as follows: 2.5×10^4 293.TCF cells were plated per well of a 96-well tissue culture plate in 50 μL of serum-free DME medium. After 24 hours of serum starvation, 25 μL of various dilutions of conditioned medium (CM) from L/Wnt3A cells (ATCC CRL-2647; Willert, 2003) or undiluted CM from parental L-cells (ATCC CRL-2648) along with 25 μL of DMEM+0.2% FBS were added to each well. Eighteen hours after addition of CM, 100 μL of One-Glo solution (ProMega Corp.) was added to each well. The contents of each well were then mixed thoroughly to lyse the cells, 100 μL of lysate transferred to black 96-well plates, and the luminescence in each well read after 5 mins using a Wallac Victor3 Multilabel Counter (Perkin-Elmer Corp). […] More particularly, as the Wnt3A+ CM media is diluted from 25% down to approximately 3%, activation of the Wnt pathway is reduced with a corresponding decrease in luminescence.
Once the luciferase reporter system was established, assays for determining the bioactivity of various Notum modulators were performed as follows. 2.5×10^4 293.TCF cells were plated per well of a 96-well tissue culture plate in 50 μL of serum-free medium. After 23 hours of serum starvation, 25 μL of DMEM+0.2% FBS containing various Notum modulators at various concentrations (e.g., hNotum-His, hNotum-hFc, hNotum-S232A-His, murine Notum-His, murine Notum-hFc, macaque Notum-hFc, control protein-His or control protein-hFc obtained as per Examples 7, 8 and 13 above), were added to the cells. After 1 hour, 25 μL of Wnt3A or control L-cell CM were added to each well. Eighteen hours after addition of CM, 100 μL of One-Glo solution (ProMega Corp.) was added to each well, the contents of each well mixed thoroughly to lyse the cells, 100 μL of lysate transferred to black 96-well plates, and the luminescence read after 5 minutes.

[2] = Esterase activity of Notum proteins on chromogenic substrates; type: biochemical; conditions: 1 hour at 37° C.
Description: Briefly, PNPA or PNPB were dissolved/diluted in isopropanol to final concentrations of 10 mM. These substrate solutions were diluted 1:10 into assay buffer (0.1% gum arabic, 2.3 mg/mL sodium dexoycholate, 1×PBS) and incubated with defined amounts of hNotum enzyme, and the enzymatic release of the chromophore p-nitrophenol monitored by absorbance measurements at 405 nm.

[3] = 4-MUH fluorescent hydrolase assay, activity of Notum constructs; type: biochemical
Description: In addition to the assays described in Examples 23 and 24, a fluorescent esterase substrate, 4-methylumbelliferyl heptanoate (Sigma), can be used to measure the activity of hydrolases using standard assay conditions (Richardson and Smith, 2007, PMID: 17620441; Jacks and Kircher, 1967, PMID: 5582971). Briefly, 4-MUH was dissolved in DMSO to a final concentration of 1.2 mM. This substrate was diluted 1:10 into assay buffer (0.1M Tris, pH 7.5, 50 mM NaCl, 0.05% Brij) and incubated with defined amounts of Notum enzyme or point-mutated Notum enzymes, and enzymatic release of the fluorescent molecule 4-methylumbelliferone monitored (355 nm excitation, 460 nm emission) using a Wallac Victor3 Multilabel Counter (Perkin Elmer).

| Molecule | antagonism of Wnt3A-mediated induction of luciferase [1] | esterase activity [2] | hydrolysis of the 4-MUH substrate [3] |
| --- | --- | --- | --- |
| macaque Notum-hFc: fusion construct of macaque Notum and human Fc region (protein, left off: a dimerising Fc or GST, fusion construct of macaque Notum and human Fc region) SEGRKTWRRRGQQPPPPPRTEAAPAAGQPVESFPLDFTAVEGNMDSFMAQVKSLAQSLYPCSAQQLNEDLRLHLLLNTSVTCNDGSPAGYYLKESRGSRRWLLFLEGGWYCFNRENCDSRYNTMRRLMSSRDWPRTRTGTGILSSQPEENPYWWNANMVFIPYCSSDVWSGASSKSEKNEYAFMGALIIQEVVRELLGRGLSGAKVLLLAGSSAGGTGVLLNVDRVAEQLEELGYPAIQVRGLADSGWFLDNKQYRHTDCVDTITCAPTEAIRRGIRYWNGVVPERCRRQFQEGEEWNCFFGYKIYPTLRCPVFVVQWLFDEAQLTVDNVHLTGQPVQESQRLYIQNLGRELRHTLKDVPASFAPACLSHEIIIRSHWTDVQVKGTSLPRALHCWDRSLHDSHKNSKTPLKGCPVHLVDSCPWPHCNPSCPTVRDQFTGQEMNVAQFLMHMGFDVQTVAQQQGPEPSKLLGL | functionally antagonize | – | – |
| murine Notum-His: His tagged murine Notum (protein, left off: small tags and cut ends) SEGRKTWRRRGQQPPQPPPPPPLPQRAEVEPGAGQPVESFPLDFTAVEGNMDSFMAQVKSLAQSLYPCSAQQLNEDLRLHLLLNTSVTCNDGSPAGYYLKESKGSRRWLLFLEGGWYCFNRENCDSRYSTMRRLMSSKDWPHTRTGTGILSSQPEENPHWWNANMVFIPYCSSDVWSGASPKSDKNEYAFMGSLIIQEVVRELLGKGLSGAKVLLLAGSSAGGTGVLLNVDRVAELLEELGYPSIQVRGLADSGWFLDNKQYRRSDCIDTINCAPTDAIRRGIRYWSGMVPERCQRQFKEGEEWNCFFGYKVYPTLRCPVFVVQWLFDEAQLTVDNVHLTGQPVQEGQWLYIQNLGRELRGTLKDVQASFAPACLSHEIIIRSYWTDVQVKGTSLPRALHCWDRSFHDSHKASKTPMKGCPFHLVDSCPWPHCNPSCPTIRDQFTGQEMNVAQFLMHMGFDVQTVAQQQGMEPSKLLGMLSNGN | functionally antagonize | – | – |
| murine Notum-hFc: fusion construct of mouse Notum and human Fc region (protein, left off: a dimerising Fc or GST, fusion construct of mouse Notum and human Fc region) SEGRKTWRRRGQQPPQPPPPPPLPQRAEVEPGAGQPVESFPLDFTAVEGNMDSFMAQVKSLAQSLYPCSAQQLNEDLRLHLLLNTSVTCNDGSPAGYYLKESKGSRRWLLFLEGGWYCFNRENCDSRYSTMRRLMSSKDWPHTRTGTGILSSQPEENPHWWNANMVFIPYCSSDVWSGASPKSDKNEYAFMGSLIIQEVVRELLGKGLSGAKVLLLAGSSAGGTGVLLNVDRVAELLEELGYPSIQVRGLADSGWFLDNKQYRRSDCIDTINCAPTDAIRRGIRYWSGMVPERCQRQFKEGEEWNCFFGYKVYPTLRCPVFVVQWLFDEAQLTVDNVHLTGQPVQEGQWLYIQNLGRELRGTLKDVQASFAPACLSHEIIIRSYWTDVQVKGTSLPRALHCWDRSFHDSHKASKTPMKGCPFHLVDSCPWPHCNPSCPTIRDQFTGQEMNVAQFLMHMGFDVQTVAQQQGMEPSKLLGMLSNGN | functionally antagonize | – | – |
| murine Notum: recombinant murine Notum protein, construct not stated (protein) SEGRKTWRRRGQQPPQPPPPPPLPQRAEVEPGAGQPVESFPLDFTAVEGNMDSFMAQVKSLAQSLYPCSAQQLNEDLRLHLLLNTSVTCNDGSPAGYYLKESKGSRRWLLFLEGGWYCFNRENCDSRYSTMRRLMSSKDWPHTRTGTGILSSQPEENPHWWNANMVFIPYCSSDVWSGASPKSDKNEYAFMGSLIIQEVVRELLGKGLSGAKVLLLAGSSAGGTGVLLNVDRVAELLEELGYPSIQVRGLADSGWFLDNKQYRRSDCIDTINCAPTDAIRRGIRYWSGMVPERCQRQFKEGEEWNCFFGYKVYPTLRCPVFVVQWLFDEAQLTVDNVHLTGQPVQEGQWLYIQNLGRELRGTLKDVQASFAPACLSHEIIIRSYWTDVQVKGTSLPRALHCWDRSFHDSHKASKTPMKGCPFHLVDSCPWPHCNPSCPTIRDQFTGQEMNVAQFLMHMGFDVQTVAQQQGMEPSKLLGMLSNGN | – | display esterase activity | – |
| D340A: human Notum with D340A point mutation of the catalytic acidic residue (protein, UniProt Q6P988 20-496, looked up, variant D340A) Palmitoleoyl-protein …: SEGRKTWRRRGQQPPPPPRTEAAPAAGQPVESFPLDFTAVEGNMDSFMAQVKSLAQSLYPCSAQQLNEDLRLHLLLNTSVTCNDGSPAGYYLKESRGSRRWLLFLEGGWYCFNRENCDSRYDTMRRLMSSRDWPRTRTGTGILSSQPEENPYWWNANMVFIPYCSSDVWSGASSKSEKNEYAFMGALIIQEVVRELLGRGLSGAKVLLLAGSSAGGTGVLLNVDRVAEQLEKLGYPAIQVRGLADSGWFLDNKQYRHTDCVDTITCAPTEAIRRGIRYWNGVVPERCRRQFQEGEEWNCFFGYKVYPTLRCPVFVVQWLFAEAQLTVDNVHLTGQPVQEGLRLYIQNLGRELRHTLKDVPASFAPACLSHEIIIRSHWTDVQVKGTSLPRALHCWDRSLHDSHKASKTPLKGCPVHLVDSCPWPHCNPSCPTVRDQFTGQEMNVAQFLMHMGFDMQTVAQPQGLEPSELLGMLSNGS | no ability to antagonize | – | no ability to hydrolyze the 4-MUH substrate |
| D141N: human Notum point mutated at D141 to the macaque residue (protein) SEGRKTWRRRGQQPPPPPRTEAAPAAGQPVESFPLDFTAVEGNMDSFMAQVKSLAQSLYPCSAQQLNEDLRLHLLLNTSVTCNDGSPAGYYLKESRGSRRWLLFLEGGWYCFNRENCDSRYNTMRRLMSSRDWPRTRTGTGILSSQPEENPYWWNANMVFIPYCSSDVWSGASSKSEKNEYAFMGALIIQEVVRELLGRGLSGAKVLLLAGSSAGGTGVLLNVDRVAEQLEKLGYPAIQVRGLADSGWFLDNKQYRHTDCVDTITCAPTEAIRRGIRYWNGVVPERCRRQFQEGEEWNCFFGYKVYPTLRCPVFVVQWLFDEAQLTVDNVHLTGQPVQEGLRLYIQNLGRELRHTLKDVPASFAPACLSHEIIIRSHWTDVQVKGTSLPRALHCWDRSLHDSHKASKTPLKGCPVHLVDSCPWPHCNPSCPTVRDQFTGQEMNVAQFLMHMGFDMQTVAQPQGLEPSELLGMLSNGS | retained bioactivity | – | retained bioactivity |
| D141S: human Notum point mutated at D141 to the murine residue (protein) SEGRKTWRRRGQQPPPPPRTEAAPAAGQPVESFPLDFTAVEGNMDSFMAQVKSLAQSLYPCSAQQLNEDLRLHLLLNTSVTCNDGSPAGYYLKESRGSRRWLLFLEGGWYCFNRENCDSRYSTMRRLMSSRDWPRTRTGTGILSSQPEENPYWWNANMVFIPYCSSDVWSGASSKSEKNEYAFMGALIIQEVVRELLGRGLSGAKVLLLAGSSAGGTGVLLNVDRVAEQLEKLGYPAIQVRGLADSGWFLDNKQYRHTDCVDTITCAPTEAIRRGIRYWNGVVPERCRRQFQEGEEWNCFFGYKVYPTLRCPVFVVQWLFDEAQLTVDNVHLTGQPVQEGLRLYIQNLGRELRHTLKDVPASFAPACLSHEIIIRSHWTDVQVKGTSLPRALHCWDRSLHDSHKASKTPLKGCPVHLVDSCPWPHCNPSCPTVRDQFTGQEMNVAQFLMHMGFDMQTVAQPQGLEPSELLGMLSNGS | retained bioactivity | – | retained bioactivity |
